According to publication PMC2211785 (The Journal of Experimental Medicine, 2004):

Molecular target: JNK-2 (human (endogenous in HUVEC), UniProt P45984 1-424)
Assay: co-IP

B1: NFATc2 (natural protein)
chain: MNAPERQPQPDGGDAPGHEPGGSPQDELDFSILFDYEYLNPNEEEPNAHKVASPPSGPAYPDDVLDYGLKPYSPLASLSGEPPGRFGEPDRVGPQKFLSAAKPAGASGLSPRIEITPSHELIQAVGPLRMRDAGLLVEQPPLAGVAASPRFTLPVPGFEGYREPLCLSPASSGSSASFISDTFSPYTSPCVSPNNGGPDDLCPQFQNIPAHYSPRTSPIMSPRTSLAEDSCLGRHSPVPRPASRSSSPGAKRRHSCAEALVALPPGASPQRSRSPSPQPSSHVAPQDHGSPAGYPPVAGSAVIMDALNSLATDSPCGIPPKMWKTSPDPSPVSAAPSKAGLPRHIYPAVEFLGPCEQGERRNSAPESILLVPPTWPKPLVPAIPICSIPVTASLPPLEWPLSSQSGSYELRIEVQPKPHHRAHYETEGSRGAVKAPTGGHPVVQLHGYMENKPLGLQIFIGTADERILKPHAFYQVHRITGKTVTTTSYEKIVGNTKVLEIPLEPKNNMRATIDCAGILKLRNADIELRKGETDIGRKNTRVRLVFRVHIPESSGRIVSLQTASNPIECSQRSAHELPMVERQDTDSCLVYGGQQMILTGQNFTSESKVVFTEKTTDGQQIWEMEATVDKDKSQPNMLFVEIPEYRNKHIRTPVKVNFYVINGKRKRSQPQHFTYHPVPAIKTEPTDEYDPTLICSPTHGGLGSQPYYPQHPMVAESPSCLVATMAPCQQFRTGLSSPDARYQQQNPAAVLYQRSKSLSPSLLGYQQPALMAAPLSLADAHRSVLVHAGSQGQSSALLHPSPTNQQASPVIHYSPTNQQLRCGSHQEFQHIMYCENFAPGTTRPGPPPVSQGQRLSPGSYPTVIQQQNATSQRAAKNGPPVSDQKEVLPAGVTIKQEQNLDQTYLDDVNEIIRKEFSGPPARNQT
- fold increase of association by PEDF combined with VEGF or bFGF: > 20 fold
